Assay results published in article PMC9662066 (Emerging Microbes & Infections, 2022).

What was measured:
SARS-CoV-2 WT-RBD [1] = molecular target: T1, SARS-CoV-2 WT-RBD (SARS-CoV-2, UniProt P0DTC2); test: ELISA; conditions: both partners purified
T1 construct: not shown: 6-His, C-terminal, kept

SARS-CoV-2 WT-RBD [2] = molecular target: T1, SARS-CoV-2 WT-RBD; test: BLI; conditions: both partners purified

B1: FC08 (antibody, V domains shown)
VH: QLLQQSGAEVKKPGSSVKVSCKASGGTFSSYAISWVRQAPGQGLEWMGGIIPIIGIANYAQKFQGRVTITADKSTSTAYMELSSLRSEDTAVYYCARERGYSGYGAAYYFDYWGQGTLVTVSS
VL: SVLTQPPSVSGAPGQRVTISCTGSSSNIGAGYDVHWYQQLPGTAPKLLIYGNSNRPSGVPDRFSGSKSGTSASLAITGLQAEDEADYYCQSYDSSLSGSVFGGGTKLTVL
binding result (SARS-CoV-2 WT-RBD [1]): binds

B2: MW01 (antibody, V domains shown)
VH: EVQLVQSGAEVKKPGSSVKVSCKASGGTFSSFSISWVRQAPGQGLEWMGRIIPVLGIANYAQEVQGRVTITADKSTSTAYMELSSLRSEDTAVYFCTTDRFVEPATGPFFDYWGQGTLVTVSS
VL: EIVMTQSPATLSVSPGERATLSCRASQSVSSNLAWYQQKPGQAPRLLIYGASTRATGIPARFSGSGSGTEFTLTISSLQSEDFAVYYCQQYSNWLTFGGGTKVEIK
binding result (SARS-CoV-2 WT-RBD [1]): binds

B3: R1-32 (antibody, V domains shown)
VH: EVQLVESGAEVKKPGSSVKVSCKASGGTFSSYAISWVRQAPGQGLEWMGGIIPILGIANYAQKFQGRVTITADKSTSTAYMELSSLRSEDTAVYYCARENGYSGYGAAANFDLWGRGTLVTVSS
VL: QSVLTQPPSVSGAPGQRVTISCTGSSSNIGAGYDVHWYQQLPGTAPKLLIYGNSNRPSGVPDRFSGSKSGTSASLAITGLQAEDEADYYCQSYDSSLSGSVFGGGTKLTVL
binding result (SARS-CoV-2 WT-RBD [1]): binds

B4: nCoV617 (antibody, V domains shown)
VH: QVQLVESGGGVVQPGRSLRLSCAASGFTFSSYAMHWVRQAPGKGLEWVALISYDGSNKYADSVKGRFTISRDNSKNTLYLQMNSLRAEDTAVYYCARGLGLRFLEWPISSYWGQGTLVTVSS
VL: not shown
notes: IgG1; IGHV3-30
binding result (SARS-CoV-2 WT-RBD [2]): binds

B5: BD-667 (antibody, V domains shown)
VH: QVQLVESGGGLVKPGGSLRLSCAASGFRFSDYYMNWIRQAPGKGLEWISYIGSGGFATYYGDSVKGRFTVSRDDAENSLYLQMNSLRAEDTAVYYCARGVTSYSDNSGNYRTDDAFDIWGQGTMVTVSS
VL: EIVMTQSPATLSVSPGERATLSCRASQSVSRNLAWYQQRPGQAPRLLIYGASTRATGVAARFTGSGFGTEFTLTISGLQSEDFAVYYCQEYNNWPPWTFGQGTKVEIK
notes: IgG1; IGHV3-11
binding result (SARS-CoV-2 WT-RBD [2]): binds

B6: LY-CoV555 (antibody, V domains shown)
VH: QVQLVQSGAEVKKPGSSVKVSCKASGGTFSNYAISWVRQAPGQGLEWMGRIIPILGIANYAQKFQGRVTITADKSTSTAYMELSSLRSEDTAVYYCARGYYEARHYYYYYAMDVWGQGTAVTVSS
VL: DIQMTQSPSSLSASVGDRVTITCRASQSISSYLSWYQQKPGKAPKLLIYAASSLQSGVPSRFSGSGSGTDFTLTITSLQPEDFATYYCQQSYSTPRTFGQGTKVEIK
binding result (SARS-CoV-2 WT-RBD [1]): binds

B7: A19-61.1 (antibody, V domains shown)
VH: QVQLVESGGGVVQPGRSLRLSCAASGFTFSSYAFHWVRQAPGKGLEWVAVISYDGSNQYYADSVKGRFTISRDNSKNTLYLQMNSLRADDTAVYYCARDLAIAVAGTWHYYNGMDVWGQGTTVTVSS
VL: DIQMTQSPSSVSASVGDRVIITCRASQGISSWLAWYQQKPGKAPKVLIYDASSLQSGVPSRFSGSGYGTDFTLTISSLQPEDSATYYCQQAKSFPITFGQGTRLEIK
notes: IgG1; IGHV3-30
binding result (SARS-CoV-2 WT-RBD [2]): binds

B8: 2-15 (antibody, V domains shown)
VH: QVQLVQSGAEVKKPGASVRVSCKASGYTFTGYYMHWVRQAPGQGLEWMGWINPISDGTNYAQKFQGWVTMTRDTSISTVYMELSRLRSDDTAVYYCARGGSRCSGGNCYGWAYDAFDIWGQGTMITVSS
VL: QSALTQPASVSGSPGQSITISCTGTSSDVGGYNFVSWYQQHPGKAPKLMIYDVSKRPSGVSNRFSGSKSGNTASLTISGLQAEDEADCYCSSYTSSSTFVFGTGTKVTVL
notes: IgG1; IGHV1-2
binding result (SARS-CoV-2 WT-RBD [2]): binds

B9: CV07-270 (antibody, V domains shown)
VH: QVQLVESGGGLVKPGGSLRLSCAASGFTFSDYYMTWIRQAPGKGLEWVSYISSSGSTIYYADSVKGRFTISRDNAKNSLYLQMNSLRAEDTAVYYCARARGSSGWYRIGTRWGNWFDPWGQGTLVTVSS
VL: QSALTQPASVSGSPGQSITISCTGTSSDVGGYNYVSWYQQHPGKAPKLMIYEVSNRPSGVSNRFSGSKSGNTASLTISGLQAEDEADYYCSSYTSSSNVVFGGGTMLTVL
binding result (SARS-CoV-2 WT-RBD [2]): binds

B10: C548 (antibody, V domains shown)
VH: QVQLVQSGAEVKKPGSSVKVSCKASGGTFSSYAISWVRQAPGQGLEWMGGIIPIFGTANYAQKFQGRVTITADESTSTAYMELSSLRSEDTAVYYCARREAYGPRDYYYYYGMDVWGQGTTVTVSS
VL: QSALTQPPSASASLGASVTLTCTLSSGYSNYKVDWYQQRPGKGPRFVMRVGTGGIVGSKGDGIPDRFSVLGSGLNRYLTIKNIQEEDESDYHCGADQGSGSNFVGVFGGGTKLTVG
notes: IgG1; IGHV1-69-encoded
binding result (SARS-CoV-2 WT-RBD [2]): binds
